In patent publication US20220195051A1 (UNIVERSIT T Z RICH, published 2022):

Biological target: T1, human recombinant biotinylated FcRn (Immunitrack) (human, UniProt P55899 24-297, biotinylated (site not told))
T1 construct: Immobilised on a ProteOn NLC chip for SPR at pH 6.0; also called human FcRn; hFcRn
Assay: SPR, human FcRn immobilised, IL-12Fc variants in solution, pH 6.0
Description: SPR was performed using the ProteOn XPR36 System (Bio-Rad Laboratories, Inc.), coating human recombinant biotinylated FcRn (Immunitrack) on a ProteOn NLC sensor chip to approximately 80 response units (RU). […] The dissociation time was 600 s. Analysis was performed using the ProteOn Manager software (Bio-Rad Laboratories, Inc.) using data normalization to the injection time, interspot background removal and build-in artefact removal function. Kd were calculated using the equilibrium analysis model.

T1 sequence (P55899 24-297): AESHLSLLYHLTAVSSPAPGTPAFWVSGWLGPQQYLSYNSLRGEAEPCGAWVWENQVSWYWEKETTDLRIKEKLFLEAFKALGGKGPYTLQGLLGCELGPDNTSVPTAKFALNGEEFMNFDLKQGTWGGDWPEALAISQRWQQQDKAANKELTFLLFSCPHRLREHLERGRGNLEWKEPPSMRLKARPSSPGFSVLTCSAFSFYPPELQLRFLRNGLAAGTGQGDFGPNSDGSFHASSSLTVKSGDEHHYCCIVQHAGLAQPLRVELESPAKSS

B1: human IL-12Fc NHQ (Fc fusion)
chain: IWELKKDVYVVELDWYPDAPGEMVVLTCDTPEEDGITWTLDQSSEVLGSGKTLTIQVKEFGDAGQYTCHKGGEVLSHSLLLLHKKEDGIWSTDILKDQKEPKNKTFLRCEAKNYSGRFTCWWLTTISTDLTFSVKSSRGSSDPQGVTCGAATLSAERVRGDNKEYEYSVECQEDSACPAAEESLPIEVMVDAVHKLKYENYTSSFFIRDIIKPDPPKNLQLKPLKNSRQVEVSWEYPDTWSTPHSYFSLTFCVQVQGKSKREKKDRVFTDKTSATVICRKNASISVRAQDRYYSSSWSEWASVPCSRNLPVATPDPGMFPCLHHSQNLLRAVSNMLQKARQTLEFYPCTSEEIDHEDITKDKTSTVEACLPLELTKNESCLNSRETSFITNGSCLASRKTSFMMALCLSSIYEDLKMYQVEFKTMNAKLLMDPKRQIFLDQNMLAVIDELMQALNFNSETVPQKSSLEEPDFYKTKIKLCILLHAFRIRAVTIDRVMSYLNASKVDKRVESKYGPPCPPCPAPEFLGGPSVFLFPPKPKDTLMNSRTPEVTCVVVDVSQEDPEVQFNWYVDGVEVHNAKTKPREEQFNSTYRVVSVLTVLHQDWLNGKEYKCKVSNKGLPSSIEKTISKAKGQPREPQVYTLPPSPEEMTKNQVSLTCLVKGFYPSDIAVEWESNGQPENNYKTTPPVLDSDGSFFLYSRLTVDKSRWQEGNVFSCSVMHEALHNQYTQKSLSLSLGK
notes: mature; As m1 with I253N and H435Q (EU) in the Fc; also called NHQ variant; not shown: Gly-Ser-linker between p40 and p35
For B1, the “fold reduction of affinity against IL-12Fc WT” value was about 8 fold.
